Data on eight molecules can be found in article PMC10398996.

The target in data set [1] is hAPP with the FAD mutations Swedish (K670N/M671L) and Indiana (V717F), transgenic in J20 mice (human) (UniProt P05067). Put plainly: native gel or EMSA; Blue Native PAGE of membranes of homogenised mouse cortices (E14 to 12 months; WT, non-transgenic and J20 mice; KO cortices as antibody controls), n-dodecyl-β-D-maltoside; Western blot with Y188, 57 or D2-II. Background: Mobility shift assays separate free from complexed probe on a gel.

In data set [2] the target is APP F1 (APP695 with a C-terminal FKBP tag and HA tag). Put plainly: native gel or EMSA; Blue Native PAGE (4–15% Tris–HCl gel, overnight, 4 °C) of membranes of transiently transfected N2a cells solubilised with n-dodecyl-β-D-maltoside; no dimerizer (untreated or ethanol vehicle); Western blot; dimer as percent of total signal.
Data set [3] deals with endogenous mouse APLP1 (mouse (endogenous in C57BL/6 cortex and mouse cells)). Nature of the data set: native gel or EMSA; Blue Native PAGE of membranes of homogenised mouse cortices (E14 to 12 months; WT, non-transgenic and J20 mice; KO cortices as antibody controls), n-dodecyl-β-D-maltoside; Western blot with Y188, 57 or D2-II.
Data set [4] concerns the target endogenous mouse APP (mouse (endogenous in C57BL/6 cortex and mouse cells)). Described as above.
The target is the same in data set [5]. The description is as above. The source holds these as a separate data set.
Data set [6] concerns the target endogenous human APP (human (endogenous in middle frontal gyrus)). Put plainly: native gel or EMSA; Blue Native PAGE, semi-denaturing conditions, of human middle frontal gyrus (controls n = 5, AD n = 6); Western blot with Y188.
The nature of data set [7]: native gel or EMSA; as a1, but the cells were treated with 100 nM of the rapamycin analogue AP20187 (dimerizer) overnight, added 4 h post-transfection.
Data set [8] can be described thus: native gel or EMSA; Blue Native PAGE (4–15% Tris–HCl gel, overnight, 4 °C) of membranes of transiently transfected N2a cells solubilised with n-dodecyl-β-D-maltoside; no dimerizer (untreated or ethanol vehicle); Western blot; dimer as percent of total signal.
The target in data set [9] is APLP2 F1 (APLP2-763 with a C-terminal FKBP tag and HA tag). The data set is described as above.
Data set [10] has as its target APLP1 F1 (APLP1 with a C-terminal FKBP tag and HA tag). The description is as above.
For data set [11], the target named is T1, endogenous mouse APLP2 (mouse (endogenous in C57BL/6 cortex and mouse cells)), Q06335.
T1 chain: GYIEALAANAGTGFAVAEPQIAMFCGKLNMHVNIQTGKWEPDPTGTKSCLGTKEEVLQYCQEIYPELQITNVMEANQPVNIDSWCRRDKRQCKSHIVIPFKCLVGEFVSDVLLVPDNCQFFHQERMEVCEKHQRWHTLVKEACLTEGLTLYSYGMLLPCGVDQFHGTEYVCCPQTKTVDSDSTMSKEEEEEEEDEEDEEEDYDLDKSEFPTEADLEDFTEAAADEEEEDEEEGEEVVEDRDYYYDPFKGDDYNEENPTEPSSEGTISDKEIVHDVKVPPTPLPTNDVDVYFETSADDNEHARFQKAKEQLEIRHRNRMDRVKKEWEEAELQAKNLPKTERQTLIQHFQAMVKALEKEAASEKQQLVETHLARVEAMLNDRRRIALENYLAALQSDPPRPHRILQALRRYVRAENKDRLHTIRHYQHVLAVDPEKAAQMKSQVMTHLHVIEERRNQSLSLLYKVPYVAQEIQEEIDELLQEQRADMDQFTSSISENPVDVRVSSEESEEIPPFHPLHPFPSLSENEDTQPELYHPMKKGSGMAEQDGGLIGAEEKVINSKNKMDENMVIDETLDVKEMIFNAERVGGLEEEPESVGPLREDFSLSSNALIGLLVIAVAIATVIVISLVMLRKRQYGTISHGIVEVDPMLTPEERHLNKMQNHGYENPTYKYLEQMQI
Put plainly: native gel or EMSA; Blue Native PAGE of membranes of homogenised mouse cortices (E14 to 12 months; WT, non-transgenic and J20 mice; KO cortices as antibody controls), n-dodecyl-β-D-maltoside; Western blot with Y188, 57 or D2-II. Conditions: remark: other sources report otherwise.

Read-outs that look alike come from different tables or passages of the source. Bounds are passed on as bounds.

In the case of “hAPP with the FAD mutations Swedish (K670N/M671L) and Indiana (V717F), transgenic in J20 mice (from UniProt P05067 18-770) (natural protein)”, in data set [1], the percent dimer (4 months) was 58.1% and the percent dimer (12 months) stood at 58%. Take “APP F1 (APP695 with a C-terminal FKBP tag and HA tag)”: the percent dimer in [2] was determined as 22.2%. As for “endogenous mouse APLP1 (natural protein)”, the percent dimer in data set [3] came to 45.6%. The molecule endogenous mouse APP (natural protein) came in with a percent dimer in data set [4] of 45%. In data set [5], this molecule displayed a percent dimer of 48.9%, a percent dimer (1 to 12 months old mice) of 49%, a percent dimer (4 months) of 61.3% and a percent dimer (12 months) of 54.8%. endogenous human APP (natural protein) yielded a percent dimer (non-demented controls) in [6] of 21.8%. As to “APLP2 F1 (APLP2-763 with a C-terminal FKBP tag and HA tag)”, in data set [7], the “percent in the HMW complex with AP20187” value is given as > 60% of APLP2 in the HMW complex. In addition, the “percent in the HMW complex” value in data set [8] is on record as < 20%, in the high molecular weight (HMW) complex. In data set [9], this molecule came in with a percent dimer of 16.2%.

“APLP1 F1 (APLP1 with a C-terminal FKBP tag and HA tag)” returned a percent dimer in data set [10] of 31.8%.

B1: endogenous mouse APLP2, Q06335 32-707 (natural protein)
chain: T1 chain
In [11], B1 yielded a percent dimer of 26.1%.
